# Where “and” joins values, the source holds several entries; their conditions need not be identical. Equal values may be shown once.
# What was measured:
# [1] = target: T1, human CD40 on cells (BJAB B cell line, human PBMCs, CD20+ B cells, tonsil B cells, monocyte-derived dendritic … (human, UniProt P25942 21-277)); assay: cell-based or functional assay
# [2] = target: T1, human CD40 on cells (BJAB B cell line, …); assay: cell-based or functional assay; remark: listed apart in the source
# [3] = target: T1, human CD40 on cells (BJAB B cell line, …); assay: cell-based or functional assay; remark: listed apart in the source
# [4] = target: human CD40 (Biacore antigen) (human, UniProt P25942 21-193, limits assumed); assay: Biacore (SPR); format not described
# [5] = target: T1, human CD40 on cells (BJAB B cell line, …); assay: flow cytometry on BJAB cells, normalized median fluorescence [left panel (Experiment 68_09]
# Experimental: (§1) Flow cytometry was used, in order to compare the binding of the different anti-CD40 antibody Fc variants in their binding to human BJAB cells. Therefore, 2×10⁵ cells were seeded per well in a 96-well V-bottom plate. The plates were washed twice with 200 μL of FACS buffer (PBS, 5% FCS, 2 mM EDTA) for 2 min at 4° C. at 1350×g. Supernatants were discarded and cells were resuspended in […] FACS buffer containing 8% human serum (InVitromex, Cat. No. S4190) and incubated for 10 min. After two washes anti-human CD40 Fc variants were added in 50 μL FACS buffer with 1% human serum starting at a concentration of 10 μg/mL in a 1:2 dilution. Cells were incubated for 30 min on ice followed by two washing steps. 50 μL of polyclonal rabbit anti-human IgG FITC, F(ab′)2 (DAKO, Cat. No. F 0315) were added to each well and incubated for 30 min on ice. At the end of the incubation cells were washed twice, resuspended in 100 μL FACS buffer and acquired on a FACS Cantoll.
# (§2) After acquisition the mean fluorescence intensity of the FITC channel was acquired in FloJo.Graphing and curve fitting was performed with GraphPad Prism 5.0. Due to changing intensities between individual experiments, values were normalized. Therefore, the highest value of each antibody test series was equaled 100%. Non-linear curve fittings were performed with the percent values.
# (§3) To compare the curves of the different experiments, the highest median fluorescence intensity of each individual dose-titration was set to 100% binding and a non-linear curve fitting was applied. […] No changes in the binding capabilities of the variants could be observed with the different mutations of the Fc binding region of Chir12.12.
# [6] = target: T1, human CD40 on cells (BJAB B cell line, …); assay: flow cytometry on BJAB cells, normalized median fluorescence [right panel (Experiment 72_09]
# Experimental: as §1, §2, §3
# [7] = target: T1, human CD40 on cells (BJAB B cell line, …); assay: cell-based or functional assay; remark: listed apart in the source
# [8] = target: T2, Rhesus CD40 on CD20+ B cells / PBMCs (Rhesus, UniProt F6SNI1 21-278); assay: cell-based or functional assay
# [9] = target: T3, Cynomolgus CD40 on CD20+ B cells / PBMCs (Cynomolgus, UniProt G7PG38 21-278); assay: cell-based or functional assay
# [10] = target: T1, human CD40 on cells (BJAB B cell line, …); assay: cell-based or functional assay; remark: listed apart in the source
# [11] = target: T2, Rhesus CD40 on CD20+ B cells / PBMCs; assay: cell-based or functional assay; remark: listed apart in the source
# [12] = target: T1, human CD40 on cells (BJAB B cell line, …); assay: flow cytometry on human CD20+ B cells
# Experimental: (§4) PBMCs (rhesus, cynomolgus or human) or tonsil B cells (human only) were incubated at 4° C. for 30 min with purified labeled mAb1 or isotype control antibodies in dose response (final concentration range 2.5 μg/ml-0.00125 μg/ml). Cells were subsequently washed prior to being incubated with an anti-human (non-human primate cross-reactive) and a biotinylated anti-human IgG antibody with minimal cross-reactivity to NHPs (R10; note that it was possible to distinguish membrane IgG expressing human B cells either by including an anti-IgM stain or via differential intensity of FACS staining). Cells were again incubated at 4° C. for 30 min prior to being washed and subject to final staining with streptavidin-FITC for 20 min at 4° C. Cells were subsequently washed and evaluation of CD40 expression on CD20+ cells was performed by flow cytometry.
# [13] = target: T3, Cynomolgus CD40 on CD20+ B cells / PBMCs; assay: flow cytometry on Cynomolgus CD20+ B cells
# Experimental: as §4
# [14] = target: T2, Rhesus CD40 on CD20+ B cells / PBMCs; assay: flow cytometry on Rhesus CD20+ B cells (n = 6)
# Experimental: as §4
# T3 sequence (G7PG38 entry or part of it limits assumed): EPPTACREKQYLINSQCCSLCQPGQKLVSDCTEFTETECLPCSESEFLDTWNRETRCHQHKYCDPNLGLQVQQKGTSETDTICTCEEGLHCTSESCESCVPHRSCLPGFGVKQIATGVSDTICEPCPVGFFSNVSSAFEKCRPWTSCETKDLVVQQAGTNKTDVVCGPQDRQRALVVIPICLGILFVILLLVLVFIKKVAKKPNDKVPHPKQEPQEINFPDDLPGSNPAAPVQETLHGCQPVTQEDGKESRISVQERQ
# human CD40 (Biacore antigen), sequence (P25942 21-193 limits assumed): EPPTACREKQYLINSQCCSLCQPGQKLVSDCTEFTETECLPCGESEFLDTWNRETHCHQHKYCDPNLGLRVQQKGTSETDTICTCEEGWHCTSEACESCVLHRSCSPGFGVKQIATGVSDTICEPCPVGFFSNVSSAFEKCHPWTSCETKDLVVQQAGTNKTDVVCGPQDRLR
# T1 sequence (P25942 21-277 limits assumed): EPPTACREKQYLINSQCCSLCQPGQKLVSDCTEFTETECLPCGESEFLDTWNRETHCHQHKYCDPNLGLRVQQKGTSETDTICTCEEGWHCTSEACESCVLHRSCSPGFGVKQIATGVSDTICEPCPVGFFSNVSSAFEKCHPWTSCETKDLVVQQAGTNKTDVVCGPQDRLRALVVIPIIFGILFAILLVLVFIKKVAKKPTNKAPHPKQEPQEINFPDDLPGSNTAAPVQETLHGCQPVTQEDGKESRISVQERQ
# T2 sequence (F6SNI1 entry or part of it limits assumed): as the sequence (G7PG38 entry or part of it limits assumed) above, with Q70R, T92M, V207A, P220L counted along it
IC50 for inhibition of CD40L-mediated proliferation of PBMCs [1],"IC50 for the inhibition of TNF alpha release from human MoDCs stimulated with MegaCD40L, average [2]","IC50 for the inhibition of TNF alpha release from human MoDCs stimulated with MegaCD40L, experiment #2 [2]","IC50 for the inhibition of TNF alpha release from human MoDCs stimulated with MegaCD40L, experiment #3 [2]","Agonist activity on huPBMCs (EC50, ng/ml) [3]","CD40L inhibition - huPBMCs (IC50, ng/ml) [3]",Kd [4],EC50 (read off the curve) [5],EC50 (read off the curve) [6],"IC50 for the inhibition of TNF alpha release from human MoDCs stimulated with MegaCD40L, experiment #1 [2]","CD154 inhibition (IC50, µg/ml), CD154+IL-4 induced proliferation of human tonsil B cells [7]","CD154 inhibition (IC50, µg/ml), CD154+IL-4 induced proliferation of Rhesus PBMCs (n = 6) [8]","CD154 inhibition (IC50, µg/ml), CD154+IL-4 induced proliferation of Cynomolgus PBMCs [9]","IC50 in the functional inhibition test (soluble CD154 + IL4-induced proliferation, human tonsil B cells) [10]","IC50 in the functional inhibition test (soluble CD154 + IL4-induced proliferation, rhesus PBMCs) [11]",EC50 [12],EC50 [13],EC50 [14],Binder
0.176 µg/mL,0.036 µg/mL,0.041 µg/mL,0.03 µg/mL,> 10000 ng/mL,13 ng/mL,0.55 nM,~0.1 µg/mL,~0.3 µg/mL,,,,,,,,,,"Chir12.12 (antibody, human IgG1, kappa, also called Chir12.12 (wt Fc); parental anti-CD40 antibody) heavy: not shown light: DIVMTQSPLSLTVTPGEPASISCRSSQSLLYSNGYNYLDWYLQKPGQSPQVLISLGSNRASGVPDRFSGSGSGTDFTLKISRVEAEDVGVYYCMQARQTPFTFGPGTKVDIRRTVAAPSVFIFPPSDEQLKSGTASVVCLLNNFYPREAKVQWKVDNALQSGNSQESVTEQDSKDSTYSLSSTLTLSKADYEKHKVYACEVTHQGLSSPVTKSFNRGEC"
0.146 µg/mL,0.033 µg/mL,0.012 µg/mL,0.042 µg/mL,> 10000 ng/mL,17 ng/mL,0.49 nM,,,0.041 µg/mL,,,,,,,,,"mAb2 (antibody, human IgG1, kappa, Fc-silent IgG1 variant of Chir12.12 with D265A; same VH/VL as Chir12.12; also called mAb2 (D265A)) heavy: not shown light: DIVMTQSPLSLTVTPGEPASISCRSSQSLLYSNGYNYLDWYLQKPGQSPQVLISLGSNRASGVPDRFSGSGSGTDFTLKISRVEAEDVGVYYCMQARQTPFTFGPGTKVDIRRTVAAPSVFIFPPSDEQLKSGTASVVCLLNNFYPREAKVQWKVDNALQSGNSQESVTEQDSKDSTYSLSSTLTLSKADYEKHKVYACEVTHQGLSSPVTKSFNRGEC"
0.118 µg/mL,0.032 µg/mL,0.008 µg/mL,0.047 µg/mL,> 10000 ng/mL,15 ng/mL,0.33 nM,~0.1 µg/mL,~0.2 µg/mL,0.039 µg/mL,,,,,,,,,"mAb3 (antibody, human IgG1, kappa, L234A L235A, IgG1 variant of Chir12.12 with L234A/L235A; same VH/VL as Chir12.12; also called mAb3 (LALA); LALA mutant) heavy: not shown light: DIVMTQSPLSLTVTPGEPASISCRSSQSLLYSNGYNYLDWYLQKPGQSPQVLISLGSNRASGVPDRFSGSGSGTDFTLKISRVEAEDVGVYYCMQARQTPFTFGPGTKVDIRRTVAAPSVFIFPPSDEQLKSGTASVVCLLNNFYPREAKVQWKVDNALQSGNSQESVTEQDSKDSTYSLSSTLTLSKADYEKHKVYACEVTHQGLSSPVTKSFNRGEC"
0.058 µg/mL,0.04 µg/mL,0.044 µg/mL,0.058 µg/mL,> 10000 ng/mL,15 ng/mL,0.69 nM,~0.3 µg/mL,~0.5 µg/mL,0.023 µg/mL,0.058 µg/mL and 0.075 µg/mL,0.03 µg/mL,0.015 µg/mL and 0.02 µg/mL,0.067 µg/mL,0.0255 µg/mL,0.26 µg/mL and 0.28 µg/mL,0.3 µg/mL and 0.24 µg/mL,0.22 µg/mL,"mAb1 (antibody, human IgG1, kappa, N297A, Fc-silent IgG1 variant of Chir12.12 with N297A (aglycosylated); same VH/VL as Chir12.12; also called mAb1 (N297A)) heavy: not shown light: DIVMTQSPLSLTVTPGEPASISCRSSQSLLYSNGYNYLDWYLQKPGQSPQVLISLGSNRASGVPDRFSGSGSGTDFTLKISRVEAEDVGVYYCMQARQTPFTFGPGTKVDIRRTVAAPSVFIFPPSDEQLKSGTASVVCLLNNFYPREAKVQWKVDNALQSGNSQESVTEQDSKDSTYSLSSTLTLSKADYEKHKVYACEVTHQGLSSPVTKSFNRGEC"

# Source: patent publication US20160152721A1 (Novartis, published 2016)
